Where a chain is given by its changes, count along the chain named.
B1: cr476 (nucleic acid)
guide: GTTTAAGAGCTAAGCTGGAAACAGCATAGCAAGTTTAAATAAGGCTAGTCCGTTATCAACTTGAAAAAGTGCGACCGAGTCGGTCGT
modifications: listed as DNA, chemistry not fully specified
B2: cr487 (nucleic acid)
guide: B1 guide with A32C, C72G, G73C, C85G, G86C
modifications: listed as DNA, chemistry not fully specified
B3: cr870 (nucleic acid)
guide: B1 guide with T27A, C72G, G73C, C85G, G86C
modifications: listed as DNA, chemistry not fully specified
B4: cr832 (nucleic acid)
guide: B1 guide with A59G, T70C, C72G, G73T, A74G, T84C, C85A, G86C
modifications: listed as DNA, chemistry not fully specified
B5: cr480 (nucleic acid)
guide: B1 guide with C60A, G69T, C72A, G73C, G77T, C81A, C85G, G86T
modifications: listed as DNA, chemistry not fully specified
B6: cr194 (nucleic acid)
guide: B1 guide with C50A, C72G, G73C, C85G, G86C
modifications: listed as DNA, chemistry not fully specified
B7: cr853 (nucleic acid)
guide: B1 guide with G33T, T46G, C72G, G73C, C85G, G86C
modifications: listed as DNA, chemistry not fully specified
B8: cr732 (nucleic acid)
guide: B1 guide with A42G, T53G, G71C, C72G, G73C, C85G, G86C
modifications: listed as DNA, chemistry not fully specified
B9: cr900 (nucleic acid)
guide: B1 guide with T36G, C72G, G73C, C85G, G86C
modifications: listed as DNA, chemistry not fully specified
B10: cr029 (nucleic acid)
guide: B1 guide with A5C, A8G, C72G, G73C, C85G, G86C
modifications: listed as DNA, chemistry not fully specified
B11: cr276 (nucleic acid)
guide: B1 guide with C45A, G48T, A59G, T70C, C72G, G73C, G77C, C81G, C85G, G86C
modifications: listed as DNA, chemistry not fully specified
B12: cr760 (nucleic acid)
guide: B1 guide with A32G, A41C, A65T, C72G, G73C, C85G, G86C
modifications: listed as DNA, chemistry not fully specified
B13: cr185 (nucleic acid)
guide: B1 guide with C72G, G73C, C81A, C85G, G86C
modifications: listed as DNA, chemistry not fully specified
B14: cr025 (nucleic acid)
guide: B1 guide with G1C, G7A, C72G, G73C, C85G, G86C
modifications: listed as DNA, chemistry not fully specified
B15: cr826 (nucleic acid)
guide: B1 guide with G33T, T49C, A55T, C72G, G73C, C85G, G86C
modifications: listed as DNA, chemistry not fully specified
B16: cr605 (nucleic acid)
guide: B1 guide with C45A, G48T, C72G, G73C, G77C, C81G, C85G, G86C
modifications: listed as DNA, chemistry not fully specified
B17: cr180 (nucleic acid)
guide: B1 guide with A41C, C72G, G73C, T80C, C85G, G86C
modifications: listed as DNA, chemistry not fully specified
B18: cr220 (nucleic acid)
guide: B1 guide with A41C, G52A, T54A, C72G, G73C, C85G, G86C
modifications: listed as DNA, chemistry not fully specified
B19: cr047 (nucleic acid)
guide: B1 guide with A5T, A8T, C72G, G73C, C85G, G86C
modifications: listed as DNA, chemistry not fully specified
B20: cr347 (nucleic acid)
guide: B1 guide with T34C, G44C, C50G, C72G, G73C, C85G, G86C
modifications: listed as DNA, chemistry not fully specified
B21: cr720 (nucleic acid)
guide: B1 guide with T34C, C45T, G48A, C72G, G73C, C85G, G86C
modifications: listed as DNA, chemistry not fully specified
B22: cr979 (nucleic acid)
guide: B1 guide with T53G, A58T, C72G, G73C, C85G, G86C
modifications: listed as DNA, chemistry not fully specified
B23: cr262 (nucleic acid)
guide: B1 guide with T34C, A59T, T70A, C72G, G73C, C85G, G86C
modifications: listed as DNA, chemistry not fully specified
B24: cr207 (nucleic acid)
guide: B1 guide with C72G, G73C, C81G, C85G, G86C
modifications: listed as DNA, chemistry not fully specified
B25: cr077 (nucleic acid)
guide: B1 guide with T2A, A8T, C72G, G73C, C85G, G86C
modifications: listed as DNA, chemistry not fully specified
B26: cr011 (nucleic acid)
guide: B1 guide with T4C, C72G, G73C, C85G, G86C
modifications: listed as DNA, chemistry not fully specified
B27: cr792 (nucleic acid)
guide: B1 guide with T34C, G73C, C85G
modifications: listed as DNA, chemistry not fully specified
B28: cr218 (nucleic acid)
guide: B1 guide with G33T, G63A, A66C, C72G, G73C, C85G, G86C
modifications: listed as DNA, chemistry not fully specified
B29: cr198 (nucleic acid)
guide: B1 guide with G33T, C72G, G73C, G79A, C85G, G86C
modifications: listed as DNA, chemistry not fully specified
B30: cr311 (nucleic acid)
guide: B1 guide with A47T, C57A, A58T, C72G, G73C, C85G, G86C
modifications: listed as DNA, chemistry not fully specified
B31: cr090 (nucleic acid)
guide: B1 guide with A5T, G7T, C72G, G73C, C85G, G86C
modifications: listed as DNA, chemistry not fully specified
B32: cr662 (nucleic acid)
guide: B1 guide with T35A, C72G, G73C, C85G, G86C
modifications: listed as DNA, chemistry not fully specified
B33: cr812 (nucleic acid)
guide: B1 guide with G48C, C72G, G73C, C85G, G86C
modifications: listed as DNA, chemistry not fully specified
B34: cr403 (nucleic acid)
guide: B1 guide with T34C, C72G, G73C, C76A, G82T, C85G, G86C
modifications: listed as DNA, chemistry not fully specified
B35: cr452 (nucleic acid)
guide: B1 guide with G33A, C57A, C72G, G73C, C85G, G86C
modifications: listed as DNA, chemistry not fully specified
B36: cr373 (nucleic acid)
guide: B1 guide with T34C, C72G, G73C, C75G, G83C, C85G, G86C
modifications: listed as DNA, chemistry not fully specified
B37: cr854 (nucleic acid)
guide: B1 guide with C72G, G73C, C75G, C76G, G82C, G83C, C85G, G86C
modifications: listed as DNA, chemistry not fully specified
B38: cr294 (nucleic acid)
guide: B1 guide with G44A, C45A, G48T, C50T, C72G, G73C, C85G, G86C
modifications: listed as DNA, chemistry not fully specified
B39: cr158 (nucleic acid)
guide: B1 guide with G43A, C45T, G48A, C51T, T62C, A67G, C72G, G73C, C85G, G86C
modifications: listed as DNA, chemistry not fully specified
B40: cr308 (nucleic acid)
guide: B1 guide with G43A, C51T, A59T, T70A, C72G, G73C, A74T, T84A, C85G, G86C
modifications: listed as DNA, chemistry not fully specified
B41: cr429 (nucleic acid)
guide: B1 guide with G44A, C45A, G48T, C50T, C72G, G73C, C75A, G83T, C85G, G86C
modifications: listed as DNA, chemistry not fully specified

tested on: K562 CRISPRi cells; assay: Constant region variant library pooled growth screen, K562; type: cell-based, human; conditions: sgRNA constant region variants; activity relative to the original, un-modified constant region cr995
Summary of the method: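 Cells were selected with puromycin for 2 days and then kept in RPMI-1640 spinner cultures, with duplicates handled separately. Targeting sequences comprised 3 sgRNAs per essential gene for 10 genes plus six non-targeting controls. Activities were normalized against pairing with the unmodified scaffold.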

| Molecule | Mean relative activity |
| --- | --- |
| B1 | 1.039 |
| B2 | 1.039 |
| B3 | 1.04 |
| B4 | 1.039 |

same assay, conditions: sgRNA constant region variants; activity relative to the unmodified constant region cr995

| Molecule | Mean relative activity |
| --- | --- |
| B5 | 0.2543 |
| B6 | 0.2113 |
| B7 | 0.2121 |
| B8 | 0.1926 |
| B9 | 0.1846 |
| B10 | 0.1663 |
| B11 | 0.2143 |
| B12 | 0.1909 |
| B13 | 0.1755 |
| B14 | 0.2396 |
| B15 | 0.1633 |
| B16 | 0.1839 |
| B17 | 0.208 |
| B18 | 0.2229 |
| B19 | 0.1686 |
| B20 | 0.1915 |
| B21 | 0.2481 |
| B22 | 0.1765 |
| B23 | 0.2329 |

| Molecule | Mean relative activity |
| --- | --- |
| B24 | 0.2154 |
| B25 | 0.2538 |
| B26 | 0.2088 |
| B27 | 0.242 |
| B28 | 0.207 |
| B29 | 0.236 |
| B30 | 0.179 |
| B31 | 0.1865 |
| B32 | 0.2491 |
| B33 | 0.1766 |
| B34 | 0.2381 |
| B35 | 0.1813 |
| B36 | 0.1993 |
| B37 | 0.2099 |
| B38 | 0.1883 |
| B39 | 0.2403 |
| B40 | 0.2249 |
| B41 | 0.196 |

Source: US20220259593A1, “CONTROL OF MAMMALIAN GENE DOSAGE USING CRISPR” (The Regents of the University of California, priority 2019, published 2022)
